Key:
[1] = target: the molecule itself; assay: self-association (Fc homodimer); co-transfection of wild-type Okt:Fc in 293F cells, Capture Select IgM immunoprecipitation, non-reducing SDS-PAGE (FIG. 8, lane 1)
[2] = target: T1, Fc2b (human µ chain CH2 to CH4 with C291S, L352S, T354K, H395V and I397K mutations and tail piece deletion) (human, UniProt P01871 112-433); assay: co-transfection in 293F cells, Capture Select IgM immunoprecipitation, non-reducing SDS-PAGE (FIG. 6, lane 2)
T1 construct: also called Pc2b
T1 chain: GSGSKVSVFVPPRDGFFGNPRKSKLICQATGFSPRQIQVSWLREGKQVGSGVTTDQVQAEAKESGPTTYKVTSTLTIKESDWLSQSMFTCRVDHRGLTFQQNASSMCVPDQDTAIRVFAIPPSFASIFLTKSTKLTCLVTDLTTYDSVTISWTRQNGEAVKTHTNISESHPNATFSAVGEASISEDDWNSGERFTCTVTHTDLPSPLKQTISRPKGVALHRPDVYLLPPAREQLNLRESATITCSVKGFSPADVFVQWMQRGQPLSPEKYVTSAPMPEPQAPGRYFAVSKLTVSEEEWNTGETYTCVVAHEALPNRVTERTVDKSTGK
Protocol: (§1) IgM was made by co-transfection of several different expression vectors at equal molar ratios into mammalian cells, such as 293F cells (Invitrogen). 10 μg of mixed DNA for expression vectors were mixed with 20 μl of 293Fectin (Invitrogen) for 30 minutes at room temperature in 2 ml of Opti-MEM (Invitrogen) and then added to 10⁷ 293F cells. Transfections with 293F cells were incubated for 72 hours post-transfection before harvesting the supernatant.
(§2) b. Protein purification by immunoprecipitation. [0243] i. Capture Select IgM (Catalog 2890.05, BAC, Thermo Fisher) [0244] Transfected supernatant were harvested by centrifugation at 2,000 G for 10 minutes. IgM proteins were purified by immunoprecipitation with affinity Capture Select IgM affinity matrix. 100 μl of Capture Select IgM slurry were added to 15 ml of harvested supernatant. […] The affinity matrixes were further washed with 60 μl of PBS and the supernatant were pooled for analysis by gel electrophoresis.
(§3) c. Gel electrophoresis [0246] i. Non-reducing SDS Page [0247] Non-reducing SDS PAGE was used to separate various mutant IgM proteins of different molecular weights. Novex 4-12% Bis-Tris Gel (Life Technologies) was used with Novex MES SDS Running Buffer (Life Technologies). [0248] II.

[3] = target: T2, Fc2a (human µ chain CH2 to CH4 region with C291S, T350Y, T354E and I397E mutations and tail piece deletion) (human, UniProt P01871 112-433); assay: co-transfection in 293F cells, Capture Select IgM immunoprecipitation, non-reducing SDS-PAGE (FIG. 6, lane 3)
T2 chain: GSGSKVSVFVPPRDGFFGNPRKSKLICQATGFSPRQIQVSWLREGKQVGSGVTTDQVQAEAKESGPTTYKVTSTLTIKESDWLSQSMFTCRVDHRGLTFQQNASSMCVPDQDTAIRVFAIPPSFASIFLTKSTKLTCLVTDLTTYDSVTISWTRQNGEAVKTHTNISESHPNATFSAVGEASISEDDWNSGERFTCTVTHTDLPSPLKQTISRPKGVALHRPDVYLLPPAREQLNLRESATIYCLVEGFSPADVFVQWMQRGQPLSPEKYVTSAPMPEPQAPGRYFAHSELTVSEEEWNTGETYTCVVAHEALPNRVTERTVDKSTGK
Protocol: as §1, §2, §3

B1: Fc chain (human IgM µ chain CM2 to CM4, cMyc tag, tail piece replaced by 6His tag, C291S) (other)
chain: GSGSKVSVFVPPRDGFFGNPRKSKLICQATGFSPRQIQVSWLREGKQVGSGVTTDQVQAEAKESGPTTYKVTSTLTIKESDWLSQSMFTCRVDHRGLTFQQNASSMCVPDQDTAIRVFAIPPSFASIFLTKSTKLTCLVTDLTTYDSVTISWTRQNGEAVKTHTNISESHPNATFSAVGEASISEDDWNSGERFTCTVTHTDLPSPLKQTISRPKGVALHRPDVYLLPPAREQLNLRESATITCLVTGFSPADVFVQWMQRGQPLSPEKYVTSAPMPEPQAPGRYFAHSILTVSEEEWNTGETYTCVVAHEALPNRVTERTVDKSTGKGGGSEQKLISEEDLNSAVDHHHHHH
notes: Native CM4 interface; also called wild-type Fc
binding result [1]: binds

B2: Rtx2a (µ chain of chimeric Rituxan (anti-CD20) Vh fused with CM1 to CM4 of human µ chain with C291S, T350Y, T354E and I397E mutations and tail piece deletion) … (antibody)
heavy: QVQLQQPGAELVKPGASVKMSCKASGYTFTSYNMHWVKQTPGRGLEWIGAIYPGNGDTSYNQKFKGKATLTADKSSSTAYMQLSSLTSEDSAVYYCARSTYYGGDWYFNVWGAGTTVTVSSGSASAPTLFPLVSCENSPSDTSSVAVGCLAQDFLPDSITFSWKYKNNSDISSTRGFPSVLRGGKYAATSQVLLPSKDVMQGTDEHVVCKVQHPNGNKEKNVPLPVIAELPPKVSVFVPPRDGFFGNPRKSKLICQATGFSPRQIQVSWLREGKQVGSGVTTDQVQAEAKESGPTTYKVTSTLTIKESDWLSQSMFTCRVDHRGLTFQQNASSMCVPDQDTAIRVFAIPPSFASIFLTKSTKLTCLVTDLTTYDSVTISWTRQNGEAVKTHTNISESHPNATFSAVGEASISEDDWNSGERFTCTVTHTDLPSPLKQTISRPKGVALHRPDVYLLPPAREQLNLRESATIYCLVEGFSPADVFVQWMQRGQPLSPEKYVTSAPMPEPQAPGRYFAHSELTVSEEEWNTGETYTCVVAHEALPNRVTERTVDKSTGK
light: QIVLSQSPAILSASPGEKVTMTCRASSSVSYIHWFQQKPGSSPKPWIYATSNLASGVPVRFSGSGSGTSYSLTISRVEAEDAATYYCQQWTSNPPTFGGGTKLEIKRTVAAPSVFIFPPSDEQLKSGTASVVCLLNNFYPREAKVQWKVDNALQSGNSQESVTEQDSKDSTYSLSSTLTLSKADYEKHKVYACEVTHQGLSSPVTKSFNRGEC
notes: One HL half pairs with the partner µ chain
binding result [2]: binds

B3: Rtx2b (µ chain of chimeric Rituxan (anti-CD20) Vh fused with CM1 to CM4 of human mu chain with C291S, L352S, T354K, H395V and I397K mutations and tail piece … (antibody)
heavy: QVQLQQPGAELVKPGASVKMSCKASGYTFTSYNMHWVKQTPGRGLEWIGAIYPGNGDTSYNQKFKGKATLTADKSSSTAYMQLSSLTSEDSAVYYCARSTYYGGDWYFNVWGAGTTVTVSSGSASAPTLFPLVSCENSPSDTSSVAVGCLAQDFLPDSITFSWKYKNNSDISSTRGFPSVLRGGKYAATSQVLLPSKDVMQGTDEHVVCKVQHPNGNKEKNVPLPVIAELPPKVSVFVPPRDGFFGNPRKSKLICQATGFSPRQIQVSWLREGKQVGSGVTTDQVQAEAKESGPTTYKVTSTLTIKESDWLSQSMFTCRVDHRGLTFQQNASSMCVPDQDTAIRVFAIPPSFASIFLTKSTKLTCLVTDLTTYDSVTISWTRQNGEAVKTHTNISESHPNATFSAVGEASISEDDWNSGERFTCTVTHTDLPSPLKQTISRPKGVALHRPDVYLLPPAREQLNLRESATITCSVKGFSPADVFVQWMQRGQPLSPEKYVTSAPMPEPQAPGRYFAVSKLTVSEEEWNTGETYTCVVAHEALPNRVTERTVDKSTGK
light: QIVLSQSPAILSASPGEKVTMTCRASSSVSYIHWFQQKPGSSPKPWIYATSNLASGVPVRFSGSGSGTSYSLTISRVEAEDAATYYCQQWTSNPPTFGGGTKLEIKRTVAAPSVFIFPPSDEQLKSGTASVVCLLNNFYPREAKVQWKVDNALQSGNSQESVTEQDSKDSTYSLSSTLTLSKADYEKHKVYACEVTHQGLSSPVTKSFNRGEC
notes: as for B2
binding result [3]: binds

Reference: patent publication US20160222132A1 (IGM BIOSCIENES, published 2016)
